The text below walks through data of article PMC2630536.

Test [1] deals with fluorescein-EGR-chloromethylketone-labeled thrombin (bovine) (bovine). Briefly: other fluorescence titration.
Test [2] concerns the target TMEGF456 M388L. Put plainly: SPR. Background: SPR reads the build-up and loss of mass on a sensor chip optically.
Test [3] addresses TMEGF456 Y358F. Put plainly: SPR.
Test [4] concerns the target TMEGF456 D349N. Put plainly: SPR.
For test [5], the target named is TMEGF456 E357Q. Briefly: SPR.

On to TMEGF45 D400E (domain or fragment), for which the Kd in test [1] was 49 nM. This lies in the double-digit nanomolar range.

TMEGF45 E357Q (domain or fragment) registered a Kd in test [1] of 55 nM.

Consider “thrombin (PPACK-thrombin in the SPR; active thrombin in the protein C activation assay) (enzyme)”, for which the Kd was 4.4 nM in test [2], 2.6 nM in test [3], 4.2 nM in test [4] and 5.2 nM in test [5].

TMEGF45 wild type (domain or fragment) displayed a Kd in test [1] of 68 nM. This counts as double-digit nanomolar.

With TMEGF45 M388L (domain or fragment), the Kd in test [1] came to 57 nM.

Substance TMEGF45 D349N (domain or fragment) showed a Kd in test [1] of 43 nM.

As a reminder, the Kd is the concentration at which binding is half-saturated.
